Results published in US20070178524A1, “Methods for determining and lowering caffeine concentration in fluids” (Washington University, priority 2004, published 2007).

Experiments:
[1] = Competition Caffeine-ELISA, competition by caffeine; type: binding; details: competitors caffeine, theophylline, theobromine; FIG. 4
Description: After caffeine specific clones had been identified, soluble VHH proteins not linked to phage particles were expressed (Harrison, supra). Binding activity of the VHH proteins was assessed in a Standard Caffeine-ELISA. Microtiter plates were coated with caffeine and blocked as above (Coating and Blocking Steps). The VHH proteins serially diluted in 20 mM Tris. pH 7.2 containing 150 mM NaCl and 0.1% Tween (TBS/BSA/Tween) were added and incubated for 90 min at 37° C. (Primary Antibody Step). Bound VHH fragments were detected by the addition of a 1/1000 dilution in TBS/BSA/Tween of mouse-anti-E Tag antibody (Amersham Bioscience Corporation) for 90 min at 37° C. (Secondary Antibody Step), followed by the addition of a 1/1000 dilution in TBS/BSA/Tween of goat-anti-mouse IgG-alkaline phosphatase conjugate for 90 min at 37° C. (Reporter Antibody Step), before the addition of para-nitrophenyl phosphate substrate (p-npp) (Sigma Aldrich) (Substrate Step). The wells were washed and monitored at A405 as above. […]
Binding of VHH proteins to unconjugated caffeine was also assessed by a competition assay (Competition Caffeine-ELISA) in which 0-800 μg/mL caffeine (Sigma-Aldrich) was added as a competitor along with the VHH during the Primary Antibody Step of the Standard Caffeine-ELISA. […] A405 readings with and without competitor were compared. […]

[2] = Competition Caffeine-ELISA, cross-reactivity with theophylline; type: binding
Description: (§1) Binding of VHH proteins to unconjugated caffeine was also assessed by a competition assay (Competition Caffeine-ELISA) in which 0-800 μg/mL caffeine (Sigma-Aldrich) was added as a competitor along with the VHH during the Primary Antibody Step of the Standard Caffeine-ELISA. All other steps are the same as for the Standard Caffeine ELISA. A405 readings with and without competitor were compared. The competition ELISA was used to assess cross-reactivity of theophylline and theobromine (Example 9, FIG. 4) and also the amount of caffeine in various beverages (Example 9, FIG. 7, Table 3).
(§2) Two additional methylxanthines with similar structure to caffeine, theobromine and theophylline, were tested for cross-reactivity with VSA2. The Competition Caffeine-ELISA described above was run using theobromine and theophylline (Sigma-Aldrich) as competitors at concentrations up to 250 μg/mL and compared to competition by caffeine.
(§3) The results of the competition caffeine-ELISA run with increasing concentrations of caffeine (-▪-), theophylline (. .●. .) or theobromine (- -▴- -) is shown in FIG. 4. The response (B) was compared to that of no competitor (Bo).

[3] = Competition Caffeine-ELISA, cross-reactivity with theobromine; type: binding; details: theobromine at concentrations up to 250 μg/mL
Description: as §1, §2, §3

[4] = Thermal stability: Standard Caffeine-ELISA after heat pre-incubation; type: binding
Description: (§4) After caffeine specific clones had been identified, soluble VHH proteins not linked to phage particles were expressed (Harrison, supra). Binding activity of the VHH proteins was assessed in a Standard Caffeine-ELISA. Microtiter plates were coated with caffeine and blocked as above (Coating and Blocking Steps). The VHH proteins serially diluted in 20 mM Tris. pH 7.2 containing 150 mM NaCl and 0.1% Tween (TBS/BSA/Tween) were added and incubated for 90 min at 37° C. (Primary Antibody Step). Bound VHH fragments were detected by the addition of a 1/1000 dilution in TBS/BSA/Tween of mouse-anti-E Tag antibody (Amersham Bioscience Corporation) for 90 min at 37° C. (Secondary Antibody Step), followed by the addition of a 1/1000 dilution in TBS/BSA/Tween of goat-anti-mouse IgG-alkaline phosphatase conjugate for 90 min at 37° C. (Reporter Antibody Step), before the addition of para-nitrophenyl phosphate substrate (p-npp) (Sigma Aldrich) (Substrate Step). The wells were washed and monitored at A405 as above. The Standard ELISA assay was used to assess thermal stability and reactivity of VSA2 (Example 9, FIGS. 5 and 6).
The thermal stability of VSA2 was determined and compared to that of two mouse anti-caffeine monoclonal antibodies (Catalog No. G45110 M and G45111 M, U.S. Biological, Swampscott, Mass.). Antibody solutions were prepared in TBS containing 0.1% Tween and incubated for 20 min at temperatures ranging from RT to 90° C. The solutions were re-equilibrated to RT before measuring caffeine binding activity. For VSA2, the Standard Caffeine-ELISA protocol was followed. For the commercial mouse monoclonal antibodies, the Secondary Antibody Step was skipped.

[5] = Thermal reactivity at 70° C. with caffeine-biotinylated nonapeptide and streptavidin magnetic beads; type: binding
Description: as §4
The thermal reactivity of VSA2 was also determined. […] The amount of unbound VSA2 remaining in the supernatant was determined in a Standard Caffeine-ELISA.

[6] = Removal of caffeine from solution by VSA2 NiNTA agarose column
Description: (§5) The ability of VSA2 to remove caffeine from solution was assessed. VSA2 still containing the His Tag (prior to thrombin cleavage) was coupled to a NiNTA agarose column via its N-terminus His Tag. Approximately 1 mg of antibody was bound to 1 ml of swollen agarose. One mg of a different unrelated protein which also contained a Histag was bound to a NiNTA agarose column as a control. Five μg of caffeine in 0.5 ml of PBS was passed over the column and then washed with 4 ml of PBS and 0.5 ml fractions collected. The amount of caffeine in the wash solutions was determined by absorbance at 273 nm and converted to amount of caffeine via comparison with the absorbance of standards (0, 2.5, 5, 10 ug).
The caffeine bound to the column was eluted with 8 M urea, 100 mM sodium phosphate, 10 mM tris, pH 6.3 and 4.1 ug of caffeine came off the column which was in excellent agreement with the 4.2 ug which had originally bound to the column. No caffeine was eluted from the control column.
The ability of the VSA2 column to remove caffeine from solution was confirmed using HPLC (method previously described) to analyze the original caffeine solution put on the column and the fractions from the column washes. […] The HPLC procedure could not be used to measure the caffeine eluted from the column due to the presence of 8 M urea.

[7] = Removal of caffeine from decaffeinated coffee by VSA2 column; details: HPLC
Description: as §5
The ability of VSA2 to remove caffeine from “decaffeinated” coffee was also assessed using brewed decaffeinated coffee (Seattle's Best™). By HPLC analysis, this batch of decaffeinated coffee had 30.8 μg/mL of caffeine. One hundred and sixty seven μL (5.15 μg caffeine) of the decaffeinated coffee was placed on the column and then the column washed as previously described and caffeine measured by HPLC in the 0.5 ml aliquots. 3.9 μg of caffeine was removed from the first decaffeinated coffee aliquot placed on the column and 0.5 μg from the second 167 μl aliquot. The total of 4.4 μg of caffeine removed by the column was very similar to the 4.2 μg removed by the column when caffeine was in a simple solution.

B1: VSA2: caffeine-specific llama single-domain heavy-chain (VHH) antibody fragment; SEQ ID NO: 1 with T7 and E tags, SEQ ID NO: 4 core (protein)
VHH: GSHMASMTGGQQMGRGSEFAEVQLQASGGGLVQAGGSLRLSCTASGRTGTIYSMAWFRQAPGKEREFLATVGWSSGITYYMDSVKGRFTISRDNAKNSAYLQMNSLKPEDTAVYYCTATRAYSVGYDYWGQGTQVTVSHAAAGAPVPYPDPLEPR
modifications: T7 and E tags; Camelidae antibody
specificity for caffeine in competition caffeine-ELISA (B/Bo) [1]: highly specific for caffeine
amount of theophylline relative to caffeine needed for equivalent competition [2]: approximately fourteen times as much theophylline as caffeine
cross-reactivity with theophylline [2]: 7.4%
competition by theophylline ([2]; theophylline at 250 μg/mL): some competition
competition by theobromine [3]: essentially no competition
effect of heat pre-incubation on caffeine binding ([4]; 20 min at temperatures of 60° C. and below, re-equilibrated to RT): no effect
activity retained after heat pretreatment ([4]; 20 min at temperatures up to 90° C., re-equilibrated to RT): greater than 90%
heat stability compared among four representative clones ([4]; purified soluble antibodies, 2 llama and 2 camel clones): greatest degree of heat stability
VHH remaining in solution ([5]; 20 μg/mL caffeine-biotinylated-nonapeptide): 56.8%
VHH remaining in solution ([5]; 200 μg/mL caffeine-biotinylated-nonapeptide): 20.1%
caffeine bound to the column ([6]; HPLC analysis): 3.8 µg
caffeine eluted from the column ([6]; eluted with 8 M urea, 100 mM sodium phosphate, 10 mM tris, pH 6.3): 4.1 µg
caffeine bound to the column ([6]; first 5 μg caffeine aliquot, UV method): 3.6 µg
caffeine recovered in the washing solutions ([6]; five μg caffeine in PBS added, about 1 mg His-tagged VSA2 on 1 ml agarose, absorbance at 273 nm, average of duplicate): 1.4 µg
additional bound caffeine ([6]; second 5 ug caffeine aliquot, UV method): 0.6 µg
total caffeine originally bound to the column ([6]; two 5 ug aliquots, UV method): 4.2 µg
caffeine removed ([7]; first 167 μL decaffeinated coffee aliquot (5.15 μg caffeine)): 3.9 µg
caffeine removed ([7]; second 167 μl decaffeinated coffee aliquot): 0.5 µg
total caffeine removed by the column ([7]; two decaffeinated coffee aliquots): 4.4 µg
